Measured values: patent WO2012175740A1

Target: cyno IgE c(epsilon)2-c(epsilon)3-c(epsilon)4 Fc fragment with C-terminal (His)10 tag (cynomolgus monkey)
Test: Alphascreen, competition with HuFc(epsilon)RI(alpha)Fc for cyno IgE Fc

Chain of cyno IgE c(epsilon)2-c(epsilon)3-c(epsilon)4 Fc fragment with C-terminal (His)10 tag (cynomolgus monkey) (chain, as listed by the source): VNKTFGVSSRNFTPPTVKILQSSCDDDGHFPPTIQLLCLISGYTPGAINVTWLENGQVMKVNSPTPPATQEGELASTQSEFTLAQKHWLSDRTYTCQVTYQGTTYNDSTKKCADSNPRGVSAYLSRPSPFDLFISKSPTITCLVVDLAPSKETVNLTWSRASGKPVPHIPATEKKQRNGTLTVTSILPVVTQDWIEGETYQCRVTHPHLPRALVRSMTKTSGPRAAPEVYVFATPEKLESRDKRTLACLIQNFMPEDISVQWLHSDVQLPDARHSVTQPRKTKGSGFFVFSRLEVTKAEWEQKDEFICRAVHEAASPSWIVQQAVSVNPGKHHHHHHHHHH

% inhibition at 250 nM Nanobody: 38%
B1: Nanobody 39B2 (VHH, not shown: small tags and cut ends)
VHH: EVQLVESGGGLVQPGGSLRLSCAASGFTFGSYDMSWVRQAPGKGPEWVSAINSGGGSTYYADSVKGRFTISRDNAKNTLYLQMNSLKPEDTAVYYCSTDLGPWIEGTMEEYEYEYWGQGTQVTVSS
